Test [1] deals with Midgut brush border membranes of Helicoverpa armigera larvae. Put plainly: 125I-labelled HaSV particles (103,000 cpm) incubated 1 h with midgut brush border membranes, pelleted, washed three times, gamma counting.
For test [2] the target is unchanged. Description: 125I-labelled HaSV particles with midgut brush border membranes preincubated 1 h with unlabelled HaSV (self-competition).
Test [3] shares this target. Put plainly: 125I-labelled HaSV particles with midgut brush border membranes boiled before the incubation (control).

For “Helicoverpa armigera stunt virus (HaSV) particles (from UniProt Q82462 1-647)”, the cpm remaining with the membranes after washing in test [1] amounted to 8500 cpm; in test [2] it was 2100 cpm; in test [3] it was 1700 cpm.

The values above are taken from US20050268353A1.
